# Test results as given in IntAct's records for PubMed 29039417.
# B1: BBSome complex member BBS2 (Homo sapiens), Q9BXC9 (parent)
# chain: MLLPVFTLKLRHKISPRMVAIGRYDGTHPCLAAATQTGKVFIHNPHTRNQHVSASRVFQSPLESDVSLLSINQAVSCLTAGVLNPELGYDALLVGTQTNLLAYDVYNNSDLFYREVADGANAIVLGTLGDISSPLAIIGGNCALQGFNHEGSDLFWTVTGDNVNSLALCDFDGDGKKELLVGSEDFDIRVFKEDEIVAEMTETEIVTSLCPMYGSRFGYALSNGTVGVYDKTSRYWRIKSKNHAMSIHAFDLNSDGVNELITGWSNGKVDARSDRTGEVIFKDNFSSAIAGVVEGDYRMDGHIQLICCSVDGEIRGYLPGTAEMRGNLMDTSAEQDLIRELSQKKQNLLLELRNYEENAKAELASPLNEADGHRGIIPANTRLHTTLSVSLGNETQTAHTELRISTSNDTIIRAVLIFAEGIFTGESHVVHPSIHNLSSSICIPIVPPKDVPVDLHLKAFVGYRSSTQFHVFESTRQLPRFSMYALTSLDPASEPISYVNFTIAERAQRVVVWLGQNFLLPEDTHIQNAPFQVCFTSLRNGGHLHIKIKLSGEITINTDDIDLAGDIIQSMASFFAIEDLQVEADFPVYFEELRKVLVKVDEYHSVHQKLSADMADHSNLIRSLLVGAEDARLMRDMKTMKSRYMELYDLNRDLLNGYKIRCNNHTELLGNLKAVNQAIQRAGRLRVGKPKNQVITACRDAIRSNNINTLFKIMRVGTASS
# partner: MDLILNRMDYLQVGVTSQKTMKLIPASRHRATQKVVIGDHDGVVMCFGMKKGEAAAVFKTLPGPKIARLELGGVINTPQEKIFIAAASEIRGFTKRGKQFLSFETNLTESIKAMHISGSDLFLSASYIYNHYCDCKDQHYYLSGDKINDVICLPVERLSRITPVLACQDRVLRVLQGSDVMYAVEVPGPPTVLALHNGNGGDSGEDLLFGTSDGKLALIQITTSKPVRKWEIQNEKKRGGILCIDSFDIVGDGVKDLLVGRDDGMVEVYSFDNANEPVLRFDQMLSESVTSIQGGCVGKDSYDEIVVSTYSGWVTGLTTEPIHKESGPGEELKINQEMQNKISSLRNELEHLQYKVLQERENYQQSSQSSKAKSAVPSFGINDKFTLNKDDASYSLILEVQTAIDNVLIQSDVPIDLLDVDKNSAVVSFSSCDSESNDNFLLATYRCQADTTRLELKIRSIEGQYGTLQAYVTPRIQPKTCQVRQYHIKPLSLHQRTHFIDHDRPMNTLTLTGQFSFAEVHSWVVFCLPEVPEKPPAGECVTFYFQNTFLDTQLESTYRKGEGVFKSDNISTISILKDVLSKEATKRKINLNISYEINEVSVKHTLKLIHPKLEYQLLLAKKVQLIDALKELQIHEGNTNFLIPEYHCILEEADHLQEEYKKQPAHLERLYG
# B2: BBSome complex member BBS1 (Homo sapiens), Q8NFJ9 (parent)
# chain: MAAASSSDSDACGAESNEANSKWLDAHYDPMANIHTFSACLALADLHGDGEYKLVVGDLGPGGQQPRLKVLKGPLVMTESPLPALPAAAATFLMEQHEPRTPALALASGPCVYVYKNLRPYFKFSLPQLPPNPLEQDLWNQAKEDRIDPLTLKEMLESIRETAEEPLSIQSLRFLQLELSEMEAFVNQHKSNSIKRQTVITTMTTLKKNLADEDAVSCLVLGTENKELLVLDPEAFTILAKMSLPSVPVFLEVSGQFDVEFRLAAACRNGNIYILRRDSKHPKYCIELSAQPVGLIRVHKVLVVGSTQDSLHGFTHKGKKLWTVQMPAAILTMNLLEQHSRGLQAVMAGLANGEVRIYRDKALLNVIHTPDAVTSLCFGRYGREDNTLIMTTRGGGLIIKILKRTAVFVEGGSEVGPPPAQAMKLNVPRKTRLYVDQTLREREAGTAMHRAFQTDLYLLRLRAARAYLQALESSLSPLSTTAREPLKLHAVVQGLGPTFKLTLHLQNTSTTRPVLGLLVCFLYNEALYSLPRAFFKVPLLVPGLNYPLETFVESLSNKGISDIIKVLVLREGQSAPLLSAHVNMPGSEGLAAA
# partner: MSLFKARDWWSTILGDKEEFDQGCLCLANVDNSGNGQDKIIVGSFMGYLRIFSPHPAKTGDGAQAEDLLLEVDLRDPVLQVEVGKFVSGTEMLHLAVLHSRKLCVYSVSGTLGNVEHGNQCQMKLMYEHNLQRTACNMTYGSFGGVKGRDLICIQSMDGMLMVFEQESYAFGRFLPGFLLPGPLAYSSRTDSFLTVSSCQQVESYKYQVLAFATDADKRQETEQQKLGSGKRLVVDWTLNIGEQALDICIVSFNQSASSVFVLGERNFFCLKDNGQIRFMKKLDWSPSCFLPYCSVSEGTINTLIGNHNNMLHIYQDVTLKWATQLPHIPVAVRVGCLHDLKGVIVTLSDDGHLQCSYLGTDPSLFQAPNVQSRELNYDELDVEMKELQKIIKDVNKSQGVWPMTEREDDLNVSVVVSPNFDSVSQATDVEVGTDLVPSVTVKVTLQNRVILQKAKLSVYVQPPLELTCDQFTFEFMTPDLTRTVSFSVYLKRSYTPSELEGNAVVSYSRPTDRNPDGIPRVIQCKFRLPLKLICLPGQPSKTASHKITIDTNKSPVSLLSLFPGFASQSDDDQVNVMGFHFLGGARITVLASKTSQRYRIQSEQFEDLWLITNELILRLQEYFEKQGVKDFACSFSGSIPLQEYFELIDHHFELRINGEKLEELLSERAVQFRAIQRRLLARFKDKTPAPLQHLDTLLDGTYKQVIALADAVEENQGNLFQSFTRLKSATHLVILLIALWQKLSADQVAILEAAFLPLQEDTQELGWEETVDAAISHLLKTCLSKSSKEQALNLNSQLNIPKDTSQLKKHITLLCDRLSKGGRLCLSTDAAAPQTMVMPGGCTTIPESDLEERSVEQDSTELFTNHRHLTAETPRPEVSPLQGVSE
# Variants of: B1
# Details: with BBS7, Q8IWZ6-2
row,Variant,effect of a mutation on the interaction
1,G326K,with no effect
2,G326A,with no effect
3,L337K,with no effect
4,A361K,with no effect
5,L349K,with no effect
6,S332E,with no effect
7,K360A,with no effect
8,L328E,with no effect
9,R325A,with no effect
10,R325E,with no effect
11,E340A,with no effect
12,R339E,with no effect
13,R339A,with no effect
14,Q343A,with no effect
15,Q343K,with no effect
16,D336A,with no effect
17,A359K,with no effect
18,A359E,with no effect
19,E357K,with no effect
20,Q346A,with no effect
21,Q346E,with no effect
22,M329K,with no effect

row,Variant,effect of a mutation on the interaction
1,K344E,with no effect
2,K344A,with no effect
3,T331E,with no effect
4,T331A,with no effect
5,L341A,with no effect
6,L341E,with no effect
7,D330A,with no effect
8,D330K,with no effect
9,S342E,with no effect
10,Y355K,with no effect
11,K345A,with no effect
12,K345E,with no effect
13,E334K,with no effect
14,E334A,with no effect
15,A333E,with no effect
16,L350K,with no effect
17,L350A,with no effect
18,E351A,with no effect
19,R353E,with no effect
20,R353K,with no effect
21,R353A,with no effect
22,L363A,with no effect

# Continued, values first:
row,effect of a mutation on the interaction,Variant
1,with no effect,G326E
2,with no effect,L337A
3,with no effect,L337E
4,with no effect,A361E
5,with no effect,L349E
6,with no effect,L349A
7,with no effect,S332K
8,with no effect,S332A
9,disrupting interaction strength,K360P
10,with no effect,K360E
11,with no effect,L328A
12,with no effect,L328K
13,with no effect,R325K
14,with no effect,E340K
15,with no effect,R339K
16,with no effect,I338A
17,with no effect,I338K
18,with no effect,I338E
19,with no effect,Q343E
20,with no effect,D336E

row,effect of a mutation on the interaction,Variant
1,with no effect,D336K
2,with no effect,L352A
3,with no effect,L352E
4,with no effect,L352K
5,with no effect,E357A
6,with no effect,Q346K
7,with no effect,N354E
8,with no effect,N354A
9,with no effect,N354K
10,with no effect,M329E
11,with no effect,M329A
12,with no effect,N358K
13,with no effect,N358A
14,with no effect,N358E
15,with no effect,T331K
16,with no effect,N327A
17,with no effect,N327K
18,with no effect,N327E
19,with no effect,L341K
20,with no effect,D330E

row,effect of a mutation on the interaction,Variant
1,with no effect,E362K
2,with no effect,E362A
3,with no effect,S342A
4,with no effect,S342K
5,with no effect,Y355E
6,with no effect,Y355A
7,with no effect,Q335E
8,with no effect,Q335K
9,with no effect,Q335A
10,with no effect,N347E
11,with no effect,N347K
12,with no effect,N347A
13,with no effect,A333K
14,with no effect,L350E
15,with no effect,E351K
16,with no effect,E356K
17,with no effect,E356A
18,with no effect,L348A
19,with no effect,L348K
20,with no effect,L348E

# Variants of: B2
# Details: with pthb1_human BBS9, Q3SYG4
row,Variant,effect of a mutation on the interaction
1,A593K,with no effect
2,A575E,with no effect
3,G586K,with no effect
4,G586E,with no effect
5,L578K,with no effect
6,L578E,with no effect
7,L567E,with no effect
8,G589A,with no effect
9,A580K,with no effect
10,N583A,with no effect
11,S574A,with no effect
12,S574K,with no effect
13,E588K,with no effect
14,A592K,with no effect
15,S579K,with no effect
16,S587E,with no effect

row,Variant,effect of a mutation on the interaction
1,S587K,with no effect
2,S587A,with no effect
3,A591K,with no effect
4,H581E,with no effect
5,H581K,with no effect
6,G572E,with no effect
7,Q573K,with no effect
8,Q573E,with no effect
9,L569A,with no effect
10,L569E,disrupting interaction strength
11,V582E,with no effect
12,V582A,with no effect
13,L577K,with no effect
14,V566E,disrupting interaction strength
15,V568A,disrupting interaction strength
16,L590E,with no effect

# The remaining lines, values ahead:
row,effect of a mutation on the interaction,Variant
1,with no effect,P585K
2,with no effect,P585E
3,with no effect,P585A
4,with no effect,A593E
5,with no effect,A575K
6,disrupting interaction strength,G586R
7,with no effect,G586A
8,with no effect,E571A
9,with no effect,E571K
10,with no effect,L578A
11,with no effect,L567K
12,with no effect,L567A
13,with no effect,G589K
14,with no effect,G589E
15,with no effect,A580E
16,with no effect,N583K
17,with no effect,N583E
18,with no effect,S574E
19,with no effect,E588A
20,with no effect,A592E
21,with no effect,S579E
22,with no effect,S579A
23,with no effect,M584K

row,effect of a mutation on the interaction,Variant
1,with no effect,M584A
2,with no effect,M584E
3,with no effect,A591E
4,with no effect,H581A
5,with no effect,G572A
6,with no effect,G572K
7,with no effect,Q573A
8,with no effect,P576E
9,disrupting interaction strength,P576K
10,with no effect,P576A
11,with no effect,L569K
12,with no effect,V582K
13,with no effect,L577A
14,with no effect,L577E
15,disrupting interaction strength,V566K
16,disrupting interaction strength,V568E
17,disrupting interaction strength,V568K
18,with no effect,R570E
19,with no effect,R570K
20,with no effect,R570A
21,with no effect,L590K
22,with no effect,L590A

# Variants of: B2
# Details: with pthb1_human BBS9, Q3SYG4
# Remark: another data set of the same source
row,Variant,effect of a mutation on the interaction
1,L503H,disrupting interaction strength
2,R512H,with no effect
